Reference: US20180044415A1 (AbbVie / Abbott, published 2018)
Where a chain is given by its changes, count along the chain named.

T1: human DLL3 (immobilized human DLL3 or h293-hDLL3 cells) (human, UniProt Q9NYJ7 27-492, limits assumed)
T1 construct: the sentence says 'immobilized human DLL3 or h293-hDLL3 cells'
T1 sequence: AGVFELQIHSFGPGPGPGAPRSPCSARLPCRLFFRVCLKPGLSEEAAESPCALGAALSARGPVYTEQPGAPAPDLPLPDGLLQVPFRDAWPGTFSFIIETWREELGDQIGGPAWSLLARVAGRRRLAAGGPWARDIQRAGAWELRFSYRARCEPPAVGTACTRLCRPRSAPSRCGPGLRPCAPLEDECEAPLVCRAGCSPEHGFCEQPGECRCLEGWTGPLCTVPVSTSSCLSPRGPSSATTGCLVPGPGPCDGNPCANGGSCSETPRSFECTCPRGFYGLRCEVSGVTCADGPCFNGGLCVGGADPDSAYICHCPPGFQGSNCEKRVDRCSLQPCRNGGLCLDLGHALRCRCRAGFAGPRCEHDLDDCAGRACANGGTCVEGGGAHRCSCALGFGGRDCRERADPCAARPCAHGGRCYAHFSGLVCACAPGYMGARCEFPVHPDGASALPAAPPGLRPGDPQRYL

B1: SC16.122 (antibody, V domains shown)
VH: EVQLVESGGGLVKPGGSLKLSCAASGFTFSDYYMFWVRQTPEKRLEWVATISDGGSYTYFPDSVKGRFTISRDNAQNNLYLQMSSLKSEDTAMYYCARAGTLYAMDYWGQGTSVTVSS
VL: DIVMTQSQKFMSTSVGDRVSVTCKASQNVGTNVAWYQQKPGQSPKVLIYSASYRYSGVPDRFTGSGSGTDFTLTISNVQSEDLAEFFCQQYNSYPLTFGGGTKLEIK
notes: murine mAb; variable regions only
B2: SC16.140 (antibody, V domains shown)
VH: QVQLQQSGPELVRPGASVKMSCKASGYTFTSYWMHWVKQRPGQGLEWIGMIDPSNSETRLNQKFKDKATLNVDKSSNTAYMQLSSLTSEDSAVYYCAVMDYYFDYWGQGTTLTVSS
VL: DIVLTQSLASLAVSLGQRATISCRASKSVSTSGYSYMHWYQQKPGQPPKLLIYLASNLESGVPARFSGSGSGTDFTLNIHPVEDEDAATYYCQHSRELPFTFGGGTKLEIK
notes: as for B1
B3: SC16.131 (antibody, V domains shown)
VH: QVQLKESGPGLVAPSQSLSITCTVSGFSLTNYGVHWVRQPPGKGLEWLGVIWAGGITNYNSALMSRLSISEDNSKSQVFLKMNSLQTDDTAMYYCARNLGPYAMDYWGQGTSVTVSS
VL: DIQMNQSPSSLSASLGDTITITCHVSQNINVWLSWYQQKPGNIPKLLIQKASNLHTGVPSRFSGSGSGTGFTLTISSLQPEDIATYYCQQGQSYPFTFGSGTKLEIK
notes: as for B1
B4: SC16.118 (antibody, V domains shown)
VH: EVQLQQSGPDLVKPGASVKISCKASGYSFTGYYMHWVKQSHGKSLEWIGRVNPNNGGTSYNQKFKGKAILTADKSSSTAYMELRSLTSEDSAVYYCARGSYDYAEGWGQGTLVTVSA
VL: DIVLTQSPASLAVSLGQRATISCKASQSVDYDGDSYLTWYQQKPGQPPKLLIYAASNLESGIPARFSGSGSGTDFTLNIHPVEEEDAATYYCQQSNEDPYTFGGGTKLEIK
notes: as for B1
B5: SC16.134 (antibody, V domains shown)
VH: B4 VH with S44R, S59N, A72V, Y103N
VL: B4 VL with Y31H, D32A, L37M, T38N
notes: as for B1
B6: SC16.121 (antibody, V domains shown)
VH: EVQLVESGGGLVQPKGSLKLSCAASGFTFNTYAMNWVRQAPGKGLEWVARIRIKSNNYATYYADSVKDRFTISRDDSQNMLYLQMNNLKTEDTAVYYCVRQGYSYDWGPWFAYWGQGTLVTVSA
VL: QIVLTQSPAIMSASPGEKVTITCSASSSVSYMHWFQQKPGTSPKLWIYSTSNLASGVPARFSGSGSGTSYSLTISRMEAEDAATYYCQQRSSYPPTFGGGTKLEIK
notes: as for B1
B7: SC16.133 (antibody, V domains shown)
VH: QVQLKESGPGLVAPSQSLSITCTVSGFSLTNYAVHWVRQSPGKGLEWLGVIWSDGSTDYNAAFISRLSISKDNSKSQVFFKMNSLQADDTAMYYCARKKGGWFPWFAYWGQGTLVTVSA
VL: SIVMTQTPKFLLVSAGDRVTITCKASQSVSNDVAWYQQKPGQSPKLLIYCASNRYTGVPDRFTGSGYGTDFTFTISTVQAEDLAVYFCQQDYSSPLTFGAGTKLELK
notes: as for B1
B8: SC16.123 (antibody, V domains shown)
VH: QVALKESGPGILQPSQTLSLTCSFSGFSLSTSGMGVGWIRQPSGKGLEWLAHIWWDDVKRYNPALKSRLTISKDTSSSQVFLKIASVDTADTATYYCARMEDYGSSSYFDFWGHGTTLTVSS
VL: QIVLTQSPAIMSASLGERVTMTCTASSSVSSSYLHWYQQKPGSSPKLWIYSTSNLASGVPARFSGSGSGTSYSLTISSMETEDAATYYCHQYHRSPFTFGSGTKLEIK
notes: as for B1
B9: SC16.124 (antibody, V domains shown)
VH: EVQLQQSGPELVKPGASVKMSCKASGYTFTSYVMHWVKQKPGQGLEWIGYINPYNDGTKYNEKFKGKATLTSDKSSSTAYMELSSLTSEDSAVYYCARGALYYGNYLGYFDVWGAGTTVTVSS
VL: DIQMTQSPASQSASLGESVTITCLASQTIGTWLAWYQQKPGKSPQLLISAATSLADGVPSRFSGSGSGTKFSFKISSLQAEDFVSYYCQQLYSTPWTFGGGTKLEIK
notes: as for B1
B10: SC16.132 (antibody, V domains shown)
VH: QVQLKESGPGLVAPSQSLSITCTVSGFSLTDYGVSWIRQPPGKGLEWLGVVWGGGSTYYNSALKSRLSITKDNSKSQVFLKMNSLQTDDTAMYYCAKQRGQYGAYWGQGTLVTVSA
VL: B9 VL with S49Y
notes: as for B1
B11: SC16.129 (antibody, V domains shown)
VH: B10 VH with V51I, T70S, K81E, M82L, M92I, Q98H, R99Y, Q101H, G103A
VL: B9 VL with S49Y, W96Y
notes: as for B1
B12: SC16.138 (antibody, V domains shown)
VH: B10 VH with T70S
VL: B9 VL with S49Y, A50S
notes: as for B1
B13: SC16.130 (antibody, V domains shown)
VH: EVQLQQSGPELVKPGASVKMSCKASGYTFTSYVMHWVKQKPGQGLEWIGYINPYNDGTEYNEKFKGKATLTSDKSSSTAYMELSSLTSEDSAVYYCARGVYDGYSYFDYWGQGTTLTVSS
VL: DIQLTQSPASLSASVGETVTITCRASGSIHNYLAWYQQKQGKSPQLLVYNAKTLVDGVPSRFSGSGSGTQYSLKINSLQPEDFGYYYCQHFWTTPWTFGGGTKLEIK
notes: as for B1
B14: SC16.136 (antibody, V domains shown)
VH: EVQLQQSGPELVKPGASVKMSCKASGYTFTSYVMHWVKQKPGQGLEWIGYINPYNDGTKYNEKFKGKATLTSDKSSSTAYMELSSLTSEDSAVYYCARDRSGYEDYYGMDYWGQGTSVTVSS
VL: B13 VL with L4M, S28N, Q45H, V55A, Y85S, T93S
notes: as for B1
B15: SC16.137 (antibody, V domains shown)
VH: EVQLVESGGDLVKPGGSLKLSCAASGFTFSSYGMSWVRQTPDKRLEWVATISSGGSYTYYPDSVKGRFTISRDNAKNTLYLQMSSLKSEDTAMYYCARRRADAMDYWGQGTSVTVSS
VL: QIVLTQSPAIMSASLGEEITLTCSASSSVSYMHWYQQKSGTSPKLLIYSTSNLASGVPSRFSGSGSGTFYSLTISSVEAEDAADYYCHQWSSYHTFGGGTKLEIKR
notes: as for B1
B16: SC16.135 (antibody, V domains shown)
VH: QVQLQQSGAELVRPGTSVKVSCKASGYAFTNYLIEWVKQRPGQGLEWIGVINPGSGGTNSNEKFKAKATLTADKSSSTAYMQLSSLTSADSAVYFCARSDYDYAFYAMDYWGQGTSVTVSS
VL: DIKMTQSPSSMYASLGERVTITCKASQDINRYLSWFQQKPGKSPKTLIYRANRLVDGVPSRFSGSGSGQDYSLTISSLEYEDMGIYYCLQYDEFPFTFGSGTKLEIK
notes: as for B1
B17: SC16.141 (antibody, V domains shown)
VH: QVQLKQSGPGLVAPSQSLFITCTVSGFSLTSYEINWVRQPPGKGLEWLGVIWTGGSTNYNSALISRLSISKDNSKSLVFLKMNSLQTDDTAIYYCVRGVYAMDYWGQGTSVTVSS
VL: B16 VL with R31S
notes: as for B1

Molecular target: T1, human DLL3 (immobilized human DLL3 or …)
Test: hybridoma screening on immobilized human DLL3 or on h293-hDLL3 cells

binding result | Binder
binds | B1
binds | B2
binds | B3
binds | B4
binds | B5
binds | B6
binds | B7
binds | B8
binds | B9
binds | B10
binds | B11
binds | B12
binds | B13
binds | B14
binds | B15
binds | B16
binds | B17
